In patent publication US8257758B2, “Process for the extraction, purification and enzymatic modification of soy 7S globulin alpha' subunit for use as hypocholesterolemizing agent” (Indena S.p.A., priority 2002, dated 2012):

Tests used:
[1] = test system: rats fed with hypercholesterolemic diet; assay: Total cholesterol and triglycerids plasma levels in rats fed with hypercholesterolemic diet, 28 day oral treatment; assay type: in vivo, rat; details: for Total cholesterol / Total triglycerids: plasma, male CD rats, hypercholesterolemic diet, oral 28 days, after 16 hour fasting
Method: Male rats CD SPF/VAF, weighing 75-100 g, were used. The animals were housed in makrolon cages (4-5 animals per cage) in environment with automatic control of light (12 hour light/12 hour darkness cycles), temperature (21±1° C.) and humidity (60±5%).
After 7 day housing, the animals were randomly divided into seven groups of 20 rats each (Table 2). During 28 days, one group was fed with normal diet (cod. 014RF25C; Mucedola S.r.l., Settimo Milanese, MI, Italy), whereas the others were fed with hypercholesterolemic diet consisting of 1% cholesterol, 0.5% cholic acid and 25% hydrogenated coconut oil (batch 332000, preparation Jan. 9, 2000; Laboratorio Dottori Piccioni, Gessate, MI, Italy), with access to water ad libitum. The diet was given daily (40 g, 09.00 a.m.) and the unconsumed amount was weighed. Treatment was carried out as follows.
Total cholesterol and triglycerids plasma levels were measured at the end of the 28 day treatment and after 16 hour fasting. […] After centrifugation for 15 min at 4° C. at 3000 rpm, plasma was recovered, frozen and stored at −20° C. until measurements.
Total cholesterol and triglycerids plasma concentrations (reported in Table 2) were determined according to conventional enzymatic assays.

LDL receptor = details: hepatic cell line; Lovati et al. 1992, 1996; Manzoni et al. 1998; cited from earlier work

For `CCOC(=O)C(C)(C)Oc1ccc(Cl)cc1` [clofibrate, reference compound], the “Total cholesterol” value ([1]; dose 200 mg/kg) was 191.2 ± 8.0 mg/dL and the “Total triglycerids” value ([1]; dose 200 mg/kg) was 139.1 ± 5.8 mg/dL.

B1: α' subunit: soy β-conglycinin α′ subunit purified by Metal Affinity Chromatography under denaturant conditions (protein, UniProt P11827 63-621, looked up)
Beta-conglycinin alpha' …: VEEEEECEEGQIPRPRPQHPERERQQHGEKEEDEGEQPRPFPFPRPRQPHQEEEHEQKEEHEWHRKEEKHGGKGSEEEQDEREHPRPHQPHQKEEEKHEWQHKQEKHQGKESEEEEEDQDEDEEQDKESQESEGSESQREPRRHKNKNPFHFNSKRFQTLFKNQYGHVRVLQRFNKRSQQLQNLRDYRILEFNSKPNTLLLPHHADADYLIVILNGTAILTLVNNDDRDSYNLQSGDALRVPAGTTYYVVNPDNDENLRMITLAIPVNKPGRFESFFLSSTQAQQSYLQGFSKNILEASYDTKFEEINKVLFGREEGQQQGEERLQESVIVEISKKQIRELSKHAKSSSRKTISSEDKPFNLRSRDPIYSNKLGKLFEITPEKNPQLRDLDVFLSVVDMNEGALFLPHFNSKAIVVLVINEGEANIELVGIKEQQQRQQQEEQPLEVRKYRAELSEQDIFVIPAGYPVVVNATSDLNFFAFGINAENNQRNFLAGSKDNVISQIPSQVQELAFPGSAKDIENLIKSQSESYFVDAQPQQKEEGNKGRKGPLSSILRAFY
In the case of B1, the “LDL receptor activity (in words)” value (LDL receptor) is given as “capable of activating LDL receptor”, the “effect on cholesterol and total triglycerids plasma levels (in words)” value ([1]; administration to rats, table 2) is given as “remarkably decreasing” and the “Total cholesterol” value ([1]; dose 10 mg/kg) is given as 182.2 ± 12.1 mg/dL. The “Total triglycerids” value ([1]; dose 10 mg/kg) was 150.1 ± 9.8 mg/dL.
